{
  "source": "patent US20040162315A1",
  "about": "“Use of compounds for treating conditions resulting from injury to the corneal nerve after LASIK and other ocular surgeries or trauma” (priority 2002, published 2004)",
  "origin": "cited, not measured here",
  "molecules": {"B1": {"name": "BDNF: neurotrophin family peptide, TrkB receptor-selective ligand (protein, UniProt P23560 19-247, looked up)", "Neurotrophic factor BDNF …": "APMKEANIRGQGGLAYPGVRTHGTLESVNGPKAGSRGLTSLADTFEHVIEELLDEDQKVRPNEENNKDADLYTSRVMLSSQVPLEPPLLFLLEEYKNYLDAANMSMRVRRHSDPARRGELSVCDSISEWVTAADKKTAVDMSGGTVTVLEKVPVSKGQLKQYFYETKCNPMGYTKEGCRGIDKRHWNSQCRTTQSYVRALTMDSKKRIGWRFIRIDTSCVCTLTIKRGR"}},
  "system": "axotomized ocular nerves",
  "details": "single intravitreal injection of 5 μg, administered during the first five days after injury",
  "data": [
    {"molecule": "B1", "values": [
      {"measurement": "death of the axotomized ocular nerves", "result": "prevented the death of the axotomized ocular nerves"}
    ]}
  ]
}
